The target of one assay is T1, recombinant human IL-23 (human, UniProt Q9NPF7 20-189; P29460 23-328).
T1 construct: also called hIL-23
T1 sequence 1: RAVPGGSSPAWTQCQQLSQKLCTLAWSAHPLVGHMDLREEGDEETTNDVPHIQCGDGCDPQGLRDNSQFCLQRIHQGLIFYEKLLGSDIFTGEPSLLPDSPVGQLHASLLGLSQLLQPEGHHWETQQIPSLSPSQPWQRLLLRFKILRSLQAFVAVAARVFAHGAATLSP
T1 sequence 2: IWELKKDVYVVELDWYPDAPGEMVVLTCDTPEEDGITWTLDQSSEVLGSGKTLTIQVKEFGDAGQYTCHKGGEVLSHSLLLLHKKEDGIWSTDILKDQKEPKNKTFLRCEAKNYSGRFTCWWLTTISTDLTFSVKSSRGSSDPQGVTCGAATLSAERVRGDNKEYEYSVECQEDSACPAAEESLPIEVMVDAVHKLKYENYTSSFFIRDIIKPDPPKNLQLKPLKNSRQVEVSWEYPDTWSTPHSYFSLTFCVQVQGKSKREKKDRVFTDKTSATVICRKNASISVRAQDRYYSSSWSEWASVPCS
Kind of assay: SPR (Biacore T100), purified antibody captured on anti-human IgG, IL-23 analyte (different source of IL-23), 1:1 model. Here is the method: Biacore analysis was carried out using a capture surface on a CM5 chip. Anti-human IgG (BR-1008-39) was used as the capturing agent. Anti-human IgG was coupled to a CM5 biosensor chip by primary amine coupling. Humanized antibody was captured on this immobilised surface and defined concentrations of IL-23 were passed over this captured surface. An injection of buffer over the captured antibody surface was used for double-referencing. […] T100 Biacore machine was used to generate the data; all runs were carried out at 25° C. using HBS EP. Data was analysed using the software inherent to the machine and fitted to the 1:1 model of binding. Tables 7 and 8 detail the IL-23 binding analysis carried out on the 8C92H6.HC1LC1 chimera and selected humanized variants in two separate experiments. Data presented in Tables 7 and 8 are from purified antibody samples. The data shown for the humanized variants is representative of a number of runs. The chimeric mAb (8C9H6.HC1LC1) was only run once in each experiment, so data shown for this mAb is from that one run.

Assay [1] concerns the target T2, recombinant cynomologus IL-23 (cynomolgus, limits assumed).
T2 construct: also called cynomolgus IL-23; cyno IL23
T2 chain 1: T1 sequence 1 with T12A, H75R, L131P
T2 chain 2: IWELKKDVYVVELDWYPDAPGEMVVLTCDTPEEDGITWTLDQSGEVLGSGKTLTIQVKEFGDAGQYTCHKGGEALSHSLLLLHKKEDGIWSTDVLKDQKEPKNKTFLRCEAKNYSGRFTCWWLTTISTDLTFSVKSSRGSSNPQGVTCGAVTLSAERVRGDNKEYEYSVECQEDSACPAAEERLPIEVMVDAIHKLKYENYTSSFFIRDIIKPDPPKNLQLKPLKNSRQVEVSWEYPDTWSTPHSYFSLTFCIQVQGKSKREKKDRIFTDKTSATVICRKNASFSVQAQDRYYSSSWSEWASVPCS
Briefly: IL-23/IL-23R inhibition ELISA (optimised protocol, OD450): plate coated with human IL23R Fc chimera, antibody pre-incubated with constant cynomolgus IL-23, bound IL-23 detected with biotinylated anti-human IL-12; purified antibody. Here is the method: Optimised protocol: Plates were coated with human IL23R Fc chimera at […] (phosphate buffered saline). 50 μl/well of this mixture was incubated overnight at 4° C. The plates were then washed three times with Phosphate Buffered Saline with 0.05% Tween 20 (PBST). Plates were blocked with 4% skim milk powder (Fluka BioChemika #70166) PBST 100 μl/well for a minimum of 1 hour at room temperature. The plates were then washed three times with Phosphate Buffered Saline+0.05% Tween 20 (PBST). Various concentrations of antibody were incubated in a separate plate with a constant concentration of IL-23 for 1 hour at room temperature. 50 ul of each mixture were transferred to the assay plate and incubated at RT for 1 hr. They were then washed three times with Phosphate Buffered Saline+0.05% Tween 20 (PBST). Bound IL23 was detected by anti human 1L12 Biotin labelled Ab (R&D systems BAF219) diluted to 100 ng/ml in 4% skim milk powder (Fluka BioChemika #70166) PBST. 50 μl/well of the biotinylated antibody was added and incubated at RT for 1 hour. The plates were then washed three times with Phosphate Buffered Saline+0.05% Tween 20 (PBST). SA HRP (GE healthcare RPN4401) was diluted 1/4000 in 4% skim m ilk powder (Fluka BioChemika #70166) PBS, 50 μl/well was added to the plates. The plates were then washed three times with Phosphate Buffered Saline+0.05% Tween 20 (PBST). 50 ul/well of TMB was added to the plates and incubated at RT for 15 min. 25 μl/well of 3 MH₂SO₄ was added to the wells already containing TMB. The plate was read at OD450 nm using the SOftmaxPRO versamax plate reader.

Numbering of substitutions follows the chain as printed.

B1: A3M0 (antibody, human IgG1, kappa, V domains shown)
VH: QVQLVQSGAEVKKPGSSVKVSCKASGYTFTSYGITWVRQAPGQGLEWMGENYPRSGNTYYNEKFKGRVTITADKSTSTAYMELSSLRSEDTAVYYCARSEFISTVVAPYYYALDYWGQGTLVTVSS
VL: DIVMTQSPDSLAVSLGERATINCKASKKVTIFGSISALHWYQQKPGQPPKLIYNGAKLESGVPDRFSGSGSGTDFTLTISSLQAEDVAVYYCLQNKEVPYTFGGGTKVEIKR
notes: Full length chains; also called humanized mAb A3M0
In the case of B1, in the assay with recombinant human IL-23, the Kd stood at 0.19 nM, the koff was 0.00024 s⁻¹ and the kon stood at 1.27e+06 M⁻¹ s⁻¹. The “IC50 (read off the curve)” value in assay [1] is about 0.7 nM.

B2: chimeric 8C92H6 HC1LC1 (antibody, V domains shown)
VH: QVQLQQSGAELARPGTSVKLSCKASGYTFTSYGITWVKQRTGQGLEWIGENYPRSGNTYYNEKFKGKATLTADKSSSTAYMELRSLTSEDSAVYFCARCEFISTVVAPYYYALDYWGQGTSLVTVS
VL: DIVLTQSPASLAVSLGQKATISCKASKKVTIFGSISALHWYQQKPGQPPKLIYNGAKLESGVSARFSDSGSQNRSPFGNQLSFTLTIDPVEADDAATYYCLQNKEVPYTFGGGTKLEIKR
notes: Murine variable regions with human constant regions; also called 8C92H6.HC1LC1 Chimera; 8C9 chimera
As for B2, in the assay with recombinant human IL-23, the Kd amounted to 0.364 nM, the koff amounted to 0.000337 s⁻¹ and the kon worked out at 925000 M⁻¹ s⁻¹. For the same molecule, the “IC50 (read off the curve)” value in assay [1] was about 2 nM.
